Data: paper PMC2265524, “ruvA Mutants That Resolve Holliday Junctions but Do Not Reverse Replication Forks” (PLoS Genetics, 2008)
Where a chain is given by its changes, count along the chain named.

Tests used:
RuvAz3 [1] = target: T1, RuvAz3 (Escherichia coli, UniProt P0A809 1-203, H29R;K129E;F140S); assay: EMSA; 5 mM EDTA; EMSA with ~4-5 ng labelled DNA; 5 mM EDTA (gel 0.5x TBE) or 3 mM MgCl2 without EDTA (gel 0.5x TB + 200 uM MgCl2); buffer as in cited ref 18; salt, pH and temperature not stated; settings: protein: recombinant; chain copies: 4; label: 5' IRD700 on S24 (IT.01); fork of 3 strands; two arms double-stranded, one single-stranded (5' part of strand 2)
T1 sequence: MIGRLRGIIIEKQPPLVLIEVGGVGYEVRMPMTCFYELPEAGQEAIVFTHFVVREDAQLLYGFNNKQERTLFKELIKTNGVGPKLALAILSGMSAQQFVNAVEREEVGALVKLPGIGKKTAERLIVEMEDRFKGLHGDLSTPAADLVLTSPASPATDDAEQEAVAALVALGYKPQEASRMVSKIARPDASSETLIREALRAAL

RuvAz87 [2] = target: T2, RuvAz87 (Escherichia coli, UniProt P0A809 1-203, N79D;N100D); assay: as above; settings: protein: recombinant; chain copies: 4; label: 5' IRD700 on S24 (IT.01); fork of 3 strands; two arms double-stranded, one single-stranded (5' part of strand 2)
T2 sequence: T1 sequence with R29H, N79D, N100D, E129K, S140F

RuvAz3 [3] = target: T1, RuvAz3; assay: EMSA; 3 mM Mg2+; EMSA with ~4-5 ng labelled DNA; 5 mM EDTA (gel 0.5x TBE) or 3 mM MgCl2 without EDTA (gel 0.5x TB + 200 uM MgCl2); buffer as in cited ref 18; salt, pH and temperature not stated; settings: protein: recombinant; chain copies: 4; label: 5' IRD700 on S24 (IT.01); three-arm fork of 4 strands, all arms double-stranded
RuvAz87 [4] = target: T2, RuvAz87; assay: as above; settings: protein: recombinant; chain copies: 4; label: 5' IRD700 on S24 (IT.01); three-arm fork of 4 strands, all arms double-stranded

B1: F1 (fork, one arm single-stranded) (structured_DNA)
DNA 1: GACGCTGCCGAATTCTACCAGTGCCTTGCTAGGACATCTTTGCCCACCTGCAGGTTCACCC
DNA 2: ATGGATAGTCGGATCCTCTAGACAGCTCCATGTAGCAAGGCACTGGTAGAATTCGGCAGCGT
DNA 3: TGGGTGAACCTGCAGGTGGGCAAAGATGTCC
Q: Does B1 bind (RuvAz3 [1])?
A: Result: no binding

Q: Does B1 bind (RuvAz87 [2])?
A: Result: no binding

B2: F2 (fork, three double-stranded arms) (structured_DNA)
DNA 1: B1 DNA 1
DNA 2: B1 DNA 2
DNA 3: B1 DNA 3
DNA 4: CATGGAGCTGTCTAGAGGATCCGACTATCGA
Q: Does B2 bind (RuvAz3 [3])?
A: Result: no binding

Q: Does B2 bind (RuvAz87 [4])?
A: Result: no binding
